This is an account of results in the supplement of paper PMC9112550, “Optimization of the antimicrobial peptide Bac7 by deep mutational scanning” (BMC Biology, 2022).
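Also: peptides expressed intracellularly from a pBAD plasmid library in pooled LB shake-flask culture, induced with 0.3% L-arabinose, DNA abundance read by NGS, three biological replicates, DESeq2 with apeglm shrinkage.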

The series relates to Escherichia coli TOP10. Kind of series: shrunken log2 fold change of peptide-encoding DNA abundance (4.5 h post-induction vs induction); higher = less antimicrobial activity (less host growth inhibition). The following applies: time post-induction: 4.5 h; library: site-saturation at positions 5, 18, 19, 20.
RRIRKRPPRLPRPRPRPGNMPRP: the “shrunken log2 fold change” value turned out to be 0.257.
On to RRIRDRPPRLPRPRPRPWWEPRP, for which the “shrunken log2 fold change” value came out at 0.186.
Turning to RRIRVRPPRLPRPRPRPRQSPRP, the “shrunken log2 fold change” value came out at 0.181.
Take RRIRERPPRLPRPRPRPLPCPRP: the “shrunken log2 fold change” value is -0.315.
With RRIRNRPPRLPRPRPRPNIYPRP, the “shrunken log2 fold change” value was -0.42.
The figure for RRIRARPPRLPRPRPRPGPKPRP is 0.421; for RRIRVRPPRLPRPRPRPWYCPRP it is -0.462.
In the case of RRIRLRPPRLPRPRPRPRPAPRP, the “shrunken log2 fold change” value was 0.454.
Take RRIRLRPPRLPRPRPRPCPSPRP: the “shrunken log2 fold change” value was -0.00306.
As to RRIRPRPPRLPRPRPRPTMCPRP, the “shrunken log2 fold change” value was -0.0327.
Regarding RRIRLRPPRLPRPRPRPYWSPRP, the “shrunken log2 fold change” value is -1.41.
In the case of RRIRRRPPRLPRPRPRPVFWPRP, the “shrunken log2 fold change” value turned out to be 0.369.
For the sequence RRIRARPPRLPRPRPRPENDPRP, the “shrunken log2 fold change” value is 0.085.
With RRIRRRPPRLPRPRPRPYIQPRP the figure was -0.603; with RRIRIRPPRLPRPRPRPMPEPRP, -0.11; with RRIRERPPRLPRPRPRPMENPRP, -0.104.
Take RRIRQRPPRLPRPRPRPFENPRP: the “shrunken log2 fold change” value was -0.00804.
RRIRIRPPRLPRPRPRPTSCPRP: the “shrunken log2 fold change” value is -0.0992.
In the case of RRIRTRPPRLPRPRPRPDYKPRP, the “shrunken log2 fold change” value was -0.303.
Take RRIRCRPPRLPRPRPRPLGNPRP: the “shrunken log2 fold change” value was -0.229.
The figure for RRIRGRPPRLPRPRPRPKHMPRP is 0.0797.
For RRIRIRPPRLPRPRPRPWKIPRP, the “shrunken log2 fold change” value was -0.0311.
RRIRSRPPRLPRPRPRPLEFPRP: the “shrunken log2 fold change” value is -0.195.
The figure for RRIRWRPPRLPRPRPRPNMDPRP is 0.0467; for RRIRSRPPRLPRPRPRPVRAPRP it is 0.655.
For the sequence RRIRQRPPRLPRPRPRPEDGPRP, the “shrunken log2 fold change” value was 0.154.
For the sequence RRIRERPPRLPRPRPRPSFDPRP, the “shrunken log2 fold change” value was -0.417.
The figure for RRIRIRPPRLPRPRPRPDQHPRP is -0.202; for RRIRLRPPRLPRPRPRPFGTPRP it is -0.424.
Take RRIRMRPPRLPRPRPRPTNIPRP: the “shrunken log2 fold change” value is -0.0556.
With RRIRNRPPRLPRPRPRPEVLPRP, the “shrunken log2 fold change” value was -0.212.
On to RRIRHRPPRLPRPRPRPFMTPRP, for which the “shrunken log2 fold change” value is -0.188.
With RRIRERPPRLPRPRPRPGGPPRP the figure was -0.00661; with RRIRNRPPRLPRPRPRPCQNPRP, -0.835.
RRIRTRPPRLPRPRPRPIHPPRP: the “shrunken log2 fold change” value is -0.389.
For the sequence RRIRWRPPRLPRPRPRPWCMPRP, the “shrunken log2 fold change” value is -0.0174.
Turning to RRIRCRPPRLPRPRPRPGRKPRP, the “shrunken log2 fold change” value was found to be 0.0644.
Take RRIRYRPPRLPRPRPRPCPIPRP: the “shrunken log2 fold change” value is 0.0143.
With RRIRHRPPRLPRPRPRPIQQPRP, the “shrunken log2 fold change” value is -0.15.
As to RRIRNRPPRLPRPRPRPKSSPRP, the “shrunken log2 fold change” value was -0.0182.
The figure for RRIRCRPPRLPRPRPRPRQMPRP is -0.136; for RRIRGRPPRLPRPRPRPFPSPRP it is 0.142; for RRIRRRPPRLPRPRPRPEMRPRP it is 0.0735.
Take RRIRFRPPRLPRPRPRPNRFPRP: the “shrunken log2 fold change” value was -0.174.
The figure for RRIRSRPPRLPRPRPRPCTPPRP is -0.312; for RRIRGRPPRLPRPRPRPELRPRP it is 1.71.
For the sequence RRIRVRPPRLPRPRPRPCNGPRP, the “shrunken log2 fold change” value was determined as 0.00489.
For RRIRQRPPRLPRPRPRPCVAPRP, the “shrunken log2 fold change” value came to 0.317.
Turning to RRIRTRPPRLPRPRPRPYHHPRP, the “shrunken log2 fold change” value is -0.59.
With RRIRGRPPRLPRPRPRPTAIPRP, the “shrunken log2 fold change” value is 0.974.
As to RRIRQRPPRLPRPRPRPGGMPRP, the “shrunken log2 fold change” value was determined as 0.2.
Take RRIRRRPPRLPRPRPRPTNRPRP: the “shrunken log2 fold change” value stood at 0.282.
Regarding RRIRVRPPRLPRPRPRPEWMPRP, the “shrunken log2 fold change” value was 0.0845.
Regarding RRIRHRPPRLPRPRPRPEGEPRP, the “shrunken log2 fold change” value was 0.0139.
Consider RRIRIRPPRLPRPRPRPEVFPRP, for which the “shrunken log2 fold change” value was -0.202.
With RRIRLRPPRLPRPRPRPVDFPRP, the “shrunken log2 fold change” value was 0.0727.
The figure for RRIRPRPPRLPRPRPRPFARPRP is 0.206.
Regarding RRIRHRPPRLPRPRPRPIKCPRP, the “shrunken log2 fold change” value is -0.87.
Take RRIRIRPPRLPRPRPRPDTYPRP: the “shrunken log2 fold change” value was -0.347.
On to RRIRFRPPRLPRPRPRPRWTPRP, for which the “shrunken log2 fold change” value was 1.19.
Turning to RRIRCRPPRLPRPRPRPCRLPRP, the “shrunken log2 fold change” value is -0.3.
With RRIRGRPPRLPRPRPRPAYQPRP the figure was 0.254.
The figure for RRIRLRPPRLPRPRPRPQNWPRP is 0.1; for RRIRMRPPRLPRPRPRPSAEPRP it is 2.7; for RRIRIRPPRLPRPRPRPWNAPRP it is 0.0267.
With RRIRWRPPRLPRPRPRPREAPRP the figure was 0.185; with RRIRKRPPRLPRPRPRPSLIPRP, -0.0338; with RRIRDRPPRLPRPRPRPDNNPRP, -0.0748.
RRIRWRPPRLPRPRPRPGTKPRP: the “shrunken log2 fold change” value is 0.139.
Consider RRIRQRPPRLPRPRPRPMKYPRP, for which the “shrunken log2 fold change” value was -0.498.
Take RRIRPRPPRLPRPRPRPSLHPRP: the “shrunken log2 fold change” value is -0.21.
Turning to RRIRSRPPRLPRPRPRPQCTPRP, the “shrunken log2 fold change” value is 0.294.
On to RRIRIRPPRLPRPRPRPFFSPRP, for which the “shrunken log2 fold change” value is -0.799.
As to RRIRLRPPRLPRPRPRPENLPRP, the “shrunken log2 fold change” value came out at 0.0256.
In the case of RRIRFRPPRLPRPRPRPWLKPRP, the “shrunken log2 fold change” value is -0.111.
Consider RRIRARPPRLPRPRPRPKLNPRP, for which the “shrunken log2 fold change” value was determined as 0.16.
For RRIRIRPPRLPRPRPRPIDCPRP, the “shrunken log2 fold change” value is -0.145.
As for RRIRVRPPRLPRPRPRPSWCPRP, the “shrunken log2 fold change” value turned out to be 0.123.
Consider RRIRLRPPRLPRPRPRPWDKPRP, for which the “shrunken log2 fold change” value was -0.0731.
Consider RRIRKRPPRLPRPRPRPPYMPRP, for which the “shrunken log2 fold change” value was -0.209.
Turning to RRIRHRPPRLPRPRPRPCQGPRP, the “shrunken log2 fold change” value was -0.00822.
On to RRIRLRPPRLPRPRPRPGVIPRP, for which the “shrunken log2 fold change” value is -0.298.
For RRIRERPPRLPRPRPRPHAHPRP, the “shrunken log2 fold change” value is -0.0467.
For RRIRWRPPRLPRPRPRPRECPRP, the “shrunken log2 fold change” value is 0.605.
In the case of RRIRRRPPRLPRPRPRPSWSPRP, the “shrunken log2 fold change” value was -0.116.
RRIRIRPPRLPRPRPRPTPGPRP: the “shrunken log2 fold change” value worked out at 0.131.
The figure for RRIRMRPPRLPRPRPRPHHNPRP is -0.533; for RRIRCRPPRLPRPRPRPACHPRP it is -0.315.
With RRIRYRPPRLPRPRPRPYWLPRP, the “shrunken log2 fold change” value is -1.14.
The figure for RRIRYRPPRLPRPRPRPRIKPRP is -0.502; for RRIRRRPPRLPRPRPRPPGIPRP it is 0.612.
On to RRIRYRPPRLPRPRPRPAHSPRP, for which the “shrunken log2 fold change” value was -0.0299.
As to RRIRVRPPRLPRPRPRPTNFPRP, the “shrunken log2 fold change” value was -0.287.
Take RRIRIRPPRLPRPRPRPYYKPRP: the “shrunken log2 fold change” value was -1.01.
Consider RRIRYRPPRLPRPRPRPGMFPRP, for which the “shrunken log2 fold change” value is -0.524.
Consider RRIRYRPPRLPRPRPRPITGPRP, for which the “shrunken log2 fold change” value is 0.0176.
Turning to RRIRNRPPRLPRPRPRPLGDPRP, the “shrunken log2 fold change” value was 0.218.
For the sequence RRIRERPPRLPRPRPRPCMSPRP, the “shrunken log2 fold change” value is -0.00711.
On to RRIRTRPPRLPRPRPRPSNPPRP, for which the “shrunken log2 fold change” value is -0.663.
RRIRCRPPRLPRPRPRPETYPRP: the “shrunken log2 fold change” value is -0.34.
RRIRHRPPRLPRPRPRPHEPPRP: the “shrunken log2 fold change” value is -0.0274.
For RRIRFRPPRLPRPRPRPVCNPRP, the “shrunken log2 fold change” value was -0.0727.
On to RRIRSRPPRLPRPRPRPSHTPRP, for which the “shrunken log2 fold change” value was -0.572.
The figure for RRIRPRPPRLPRPRPRPLPMPRP is 0.53; for RRIRQRPPRLPRPRPRPKSPPRP it is -0.089.
The figure for RRIRLRPPRLPRPRPRPFFFPRP is 0.343.
In the case of RRIRNRPPRLPRPRPRPGFIPRP, the “shrunken log2 fold change” value was 0.0474.
Turning to RRIRIRPPRLPRPRPRPLDMPRP, the “shrunken log2 fold change” value is -0.285.
With RRIRYRPPRLPRPRPRPEFAPRP the figure was -0.167; with RRIRVRPPRLPRPRPRPFGGPRP, -0.216.
For the sequence RRIRERPPRLPRPRPRPTTMPRP, the “shrunken log2 fold change” value was -0.364.
Take RRIRGRPPRLPRPRPRPPNKPRP: the “shrunken log2 fold change” value was 0.528.
Take RRIRERPPRLPRPRPRPWHEPRP: the “shrunken log2 fold change” value is -0.0932.
Consider RRIRRRPPRLPRPRPRPSLGPRP, for which the “shrunken log2 fold change” value was determined as 0.261.
Consider RRIRERPPRLPRPRPRPAVYPRP, for which the “shrunken log2 fold change” value is -0.221.
With RRIRTRPPRLPRPRPRPSDLPRP the figure was -0.0743; with RRIRARPPRLPRPRPRPTAAPRP, 1.05.
With RRIRRRPPRLPRPRPRPKFAPRP the figure was 0.283; with RRIRCRPPRLPRPRPRPARFPRP, 0.558; with RRIRIRPPRLPRPRPRPARMPRP, 0.223.
Regarding RRIRCRPPRLPRPRPRPAIWPRP, the “shrunken log2 fold change” value stood at 0.346.
Consider RRIRARPPRLPRPRPRPNAYPRP, for which the “shrunken log2 fold change” value is 0.0893.
As to RRIRLRPPRLPRPRPRPWGHPRP, the “shrunken log2 fold change” value was 0.105.
In the case of RRIRSRPPRLPRPRPRPCGQPRP, the “shrunken log2 fold change” value amounted to 0.088.
Consider RRIRCRPPRLPRPRPRPYRLPRP, for which the “shrunken log2 fold change” value was -0.0743.
